According to patent publication US8716246B2, “Azuvirin peptides” (The Regents of the University of California, priority 2011, dated 2014):
Square brackets hold non-standard residues; d marks the D form. Peptide text beside a SMILES is read from it. * marks the point of attachment. Oic = O=C(O)[C@@H]1C[C@@H]2CCCC[C@@H]2N1; Cha = N[C@@H](CC1CCCCC1)C(=O)O; Tle = CC(C)(C)[C@H](N)C(=O)O; Nicotinoyl = O=C(c1cccnc1)*; Acm = CC(=O)NC*

How the values were obtained:
[1] = MultiTox-Fluor Multiplex Cytotoxicity Assay, RAW 264.7 cells; type: cell-based; conditions: mouse, 24 h co-culture, read-out: LD50, RAW cells
Protocol: (§1) Experiments were carried out using MultiTox-Fluor Multiplex Cytotoxicity Assay (Promega Corp., Madison, Wis.) as previously described. This assay simultaneously measures the number of live and dead cells in culture wells based on the activity of two proteases, one a marker of cell viability, and the other a marker of cytotoxicity, which yield products with different excitation and emission spectra. Briefly, for cytotoxicity experiments murine LCC (or RAW 264.7) cells were plated in a 96-well plate at a density of 1×10^4 cells/well in a total volume of 50 μl of culture media and treated with various concentrations of tested peptides (50 μl of 0-400 μM peptides in culture media). Cells' viability was assessed 24 h later by MultiTox-Fluor Multiplex Cytotoxicity Assay (incubation time 1 h). For cell viability experiments, LCC cells were plated in a 96-well plate at a density of 5×10^3 cells/well in a total volume of 50 μl of culture media and treated with various concentrations of tested peptide (50 μl of 0-200 μM peptide in culture media) for 1 hour prior to 0, 2, 4 Gy irradiation. Cell viability was assessed 72 h later by MultiTox-Fluor Multiplex Cytotoxicity Assay (incubation time 1 h). All experiments were carried out in triplicates.

rhEphB2/Fc = rhEphB2/Fc (Homo sapiens, UniProt P29323); assay: SPR binding to immobilized rhEphB2/Fc (Biacore 3000); set-up: Fc; purchased R&D Systems, Inc., Minneapolis, Minn
Protocol: Binding to selected ephrin receptors was measured by surface plasmon resonance on a Biacore3000 instrument. Commercially available ephrin receptors: EphA2, EphB2 and EphB4 (R&D Systems) were immobilized on a CM-5 chip by amine coupling and tested peptides were passed over a chip surface as analytes.
Binding studies. Binding studies were performed by surface plasmon resonance (SPR) on a BIAcore 3000 system (BiaCore AB, Piscataway, N.J.). BIAcore CM5 sensor chips were utilized in all experiments. Binding studies were performed in HBS-EP running buffer (pH=7.4) containing 10 mM HEPES, 150 mM NaCl, 3 mM EDTA, and 0.005% polysorbate 20. Commercially available ephrin receptors: EphA2, EphB2 and EphB4 (R&D Systems, Inc., Minneapolis, Minn.) were immobilized on a CM5 sensor chip using the amine coupling method. The chip was activated by mixing 400 mM N-ethyl-N-(3-dimethylaminopropyl)-carbodiimide hydrochloride and 100 mM N-hydroxysuccinimide. Residual reactive groups on the chip surface were blocked using 1.0 M ethanolamine/HCl (pH=8.5). The flow cell-1 chip, which served as a control, lacked immobilized protein but was treated with N-ethyl-N-(3-dimethylaminopropyl)-carbodiimide hydrochloride, N hydroxysuccinimide, and ethanolamine/HCl. Binding signals were corrected for nonspecific binding by subtracting the flow cell-1 signal (blank surface). To regenerate chip surfaces, bound ligands were removed with 10 mM HCl. Data were analyzed with BIAevaluation 4.1 software (Biacore, Piscataway, N.J.).

[2] = MultiTox-Fluor Multiplex Cytotoxicity Assay, LLC cells; type: cell-based, murine; conditions: mouse, Lewis lung carcinoma (LLC) cells; 24 h co-culture; read-out: LD50, LLC cells
Protocol: as §1

[3] = system: human red blood cells (hRBCs)
Protocol: Human red blood cells (hRBCs). Fresh blood (˜3 ml) was collected from an anonymous donor into a tube that contained heparin as an anticoagulant. An aliquot of blood (200 μl) was removed and washed 4 with 800 μl of cold PBS at room temperature, each centrifugation was for 3 minutes at ˜500×g. A total of 780 μl of supernatant was removed each time. With four washes, this procedure should remove >99.8% of the total serum protein and any heparin anticoagulant. The supernatant was completely removed in the last wash, leaving only the packed red blood cells, which were subsequently diluted 1:20 in PBS to make 5% v/v stock of hRBCs.
Hemolysis assay. The experiments were carried out as previously described. Briefly, 2.5% v/v normal human RBCs were exposed to various concentrations of AzV36-NicL at 37° C. for 30 min. All experiment were carried out in triplicate using 96-well microplate (Costar 3596) and OD at 700 nm was monitored every 30 s. employing the SpectraMAX 250 microplate reader (Molecular Devices, Sunnyvale, Calif.). Controls: PBS, human RBCs, human RBCs+2.5% Triton (100% lysis). The hemolytic effect was calculated as following: […]

## CC(=O)NCSC[C@H](NC(=O)[C@H](CC1CCCCC1)NC(=O)[C@H](CC1CCCCC1)NC(=O)[C@@H](CCCCNC(=O)c1cccnc1)NC(=O)[C@@H](N)Cc1ccc(O)cc1)C(=O)N[C@H](C(=O)N[C@@H](CC1CCCCC1)C(=O)N1[C@H](C(=O)N[C@H](CCCNC(=N)N)C(=O)N[C@@H](Cc2c[nH]cn2)C(=O)N[C@@H](CCCNC(=N)N)C(=O)N[C@H](C(=O)N[C@@H](CC2CCCCC2)C(=O)N[C@@H](CSCNC(C)=O)C(=O)N[C@H](CCCCN)C(N)=O)[C@@H](C)O)C[C@@H]2CCCC[C@@H]21)C(C)(C)C [AzV36-NicL, YkNic-Cha-Cha-Cam-Tle-Cha-Oic-rHRT-Cha-Cam-k-CONH] (H-Y[dK](Nicotinoyl)[Cha][Cha]C(Acm)[Tle][Cha][Oic][dR]HRT[Cha]C(Acm)[dK]-NH2)
[1]
  CC50 at 24 h: 10.3 ± 0.78 µM
rhEphB2/Fc
  Kd: 0.0143 ± 0.0033 µM
[2]
  CC50 at 24 h: 17 ± 2.84 µM
[3]; 20 μM peptide (highest tested), 2.5% hRBCs, 37° C., 30 min
  Hemolysis ± SEM: 9.3±3.0%
[3]; ≦10 μM peptide
  hemolytic effect (in words): non-hemolytic
